The data set has as its system Escherichia coli TOP10. In words: shrunken log2 fold change of peptide-encoding DNA abundance (4.5 h post-induction vs induction); higher = less antimicrobial activity (less host growth inhibition). To be noted: time post-induction: 4.5 h; library: site-saturation at positions 5, 18, 19, 20.

Results on 91 sequences are retold here after the supplement of paper PMC9112550, “Optimization of the antimicrobial peptide Bac7 by deep mutational scanning” (BMC Biology, 2022).
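Note: peptides expressed intracellularly from a pBAD plasmid library in pooled LB shake-flask culture, induced with 0.3% L-arabinose, DNA abundance read by NGS, three biological replicates, DESeq2 with apeglm shrinkage.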

As for RRIRRRPPRLPRPRPRPFLTPRP, the “shrunken log2 fold change” value was 0.228.

Consider RRIRWRPPRLPRPRPRPHQMPRP, for which the “shrunken log2 fold change” value is -0.34.

With RRIRIRPPRLPRPRPRPCPIPRP, the “shrunken log2 fold change” value turned out to be 0.128.

As to RRIRIRPPRLPRPRPRPRAPPRP, the “shrunken log2 fold change” value is 0.347.

Regarding RRIRARPPRLPRPRPRPDINPRP, the “shrunken log2 fold change” value was 0.0789.

Take RRIRPRPPRLPRPRPRPHNTPRP: the “shrunken log2 fold change” value is -0.481.

RRIRTRPPRLPRPRPRPWPNPRP: the “shrunken log2 fold change” value was -0.124.

On to RRIRTRPPRLPRPRPRPPEHPRP, for which the “shrunken log2 fold change” value came to 0.0826.

Take RRIRARPPRLPRPRPRPLRVPRP: the “shrunken log2 fold change” value was 3.15.

RRIRHRPPRLPRPRPRPNRGPRP: the “shrunken log2 fold change” value was -0.123.

On to RRIRQRPPRLPRPRPRPRKAPRP, for which the “shrunken log2 fold change” value is -0.0029.

RRIRKRPPRLPRPRPRPSYNPRP: the “shrunken log2 fold change” value was -0.397.

As to RRIRSRPPRLPRPRPRPGLKPRP, the “shrunken log2 fold change” value amounted to 0.14.

Regarding RRIRDRPPRLPRPRPRPLMQPRP, the “shrunken log2 fold change” value stood at 0.823.

As for RRIRVRPPRLPRPRPRPISQPRP, the “shrunken log2 fold change” value is -0.261.

Turning to RRIRMRPPRLPRPRPRPCFRPRP, the “shrunken log2 fold change” value came out at 0.123.

As to RRIRIRPPRLPRPRPRPGPPPRP, the “shrunken log2 fold change” value was 0.221.

For RRIRIRPPRLPRPRPRPTNGPRP, the “shrunken log2 fold change” value was -0.166.

Turning to RRIRVRPPRLPRPRPRPGTCPRP, the “shrunken log2 fold change” value came to 0.0803.

For the sequence RRIRARPPRLPRPRPRPHHTPRP, the “shrunken log2 fold change” value was -0.364.

Turning to RRIRVRPPRLPRPRPRPIQHPRP, the “shrunken log2 fold change” value is -0.415.

As to RRIRTRPPRLPRPRPRPWSTPRP, the “shrunken log2 fold change” value was -0.14.

For RRIRGRPPRLPRPRPRPNVWPRP, the “shrunken log2 fold change” value was 0.728.

As for RRIRPRPPRLPRPRPRPEYNPRP, the “shrunken log2 fold change” value is -0.624.

Turning to RRIRNRPPRLPRPRPRPESHPRP, the “shrunken log2 fold change” value is -0.0363.

Turning to RRIRVRPPRLPRPRPRPTHCPRP, the “shrunken log2 fold change” value turned out to be 0.233.

Take RRIRARPPRLPRPRPRPIRQPRP: the “shrunken log2 fold change” value was -0.00194.

Consider RRIRVRPPRLPRPRPRPSEPPRP, for which the “shrunken log2 fold change” value is -0.11.

For RRIRRRPPRLPRPRPRPERPPRP, the “shrunken log2 fold change” value is 0.991.

Consider RRIRWRPPRLPRPRPRPKVDPRP, for which the “shrunken log2 fold change” value turned out to be 0.0401.

As for RRIRVRPPRLPRPRPRPHEGPRP, the “shrunken log2 fold change” value was -0.0348.

Regarding RRIRLRPPRLPRPRPRPDPQPRP, the “shrunken log2 fold change” value was -0.00554.

With RRIRARPPRLPRPRPRPDMDPRP, the “shrunken log2 fold change” value was found to be 0.3.

In the case of RRIRRRPPRLPRPRPRPVPKPRP, the “shrunken log2 fold change” value is 0.234.

RRIRIRPPRLPRPRPRPMSIPRP: the “shrunken log2 fold change” value was -0.0563.

Turning to RRIRRRPPRLPRPRPRPCRKPRP, the “shrunken log2 fold change” value was -0.444.

Consider RRIRFRPPRLPRPRPRPHQCPRP, for which the “shrunken log2 fold change” value was -0.315.

Regarding RRIRTRPPRLPRPRPRPELLPRP, the “shrunken log2 fold change” value worked out at 0.39.

For the sequence RRIRCRPPRLPRPRPRPIRNPRP, the “shrunken log2 fold change” value was -0.182.

In the case of RRIRGRPPRLPRPRPRPTKMPRP, the “shrunken log2 fold change” value came out at 0.521.

With RRIRARPPRLPRPRPRPVINPRP, the “shrunken log2 fold change” value was -0.383.

Consider RRIRTRPPRLPRPRPRPDHWPRP, for which the “shrunken log2 fold change” value was 0.0335.

Consider RRIRIRPPRLPRPRPRPKHGPRP, for which the “shrunken log2 fold change” value was -0.113.

Regarding RRIRNRPPRLPRPRPRPNLAPRP, the “shrunken log2 fold change” value is -0.137.

Consider RRIRFRPPRLPRPRPRPQIKPRP, for which the “shrunken log2 fold change” value was -0.291.

Consider RRIRKRPPRLPRPRPRPFEPPRP, for which the “shrunken log2 fold change” value amounted to 0.00335.

For RRIRERPPRLPRPRPRPACDPRP, the “shrunken log2 fold change” value was found to be 0.0619.

Take RRIRGRPPRLPRPRPRPVYRPRP: the “shrunken log2 fold change” value is 0.15.

On to RRIRQRPPRLPRPRPRPTETPRP, for which the “shrunken log2 fold change” value came to 0.0687.

Take RRIRIRPPRLPRPRPRPDNMPRP: the “shrunken log2 fold change” value is -0.25.

In the case of RRIRGRPPRLPRPRPRPREMPRP, the “shrunken log2 fold change” value worked out at 1.2.

For RRIRFRPPRLPRPRPRPSQEPRP, the “shrunken log2 fold change” value is -0.286.

Consider RRIRSRPPRLPRPRPRPLHWPRP, for which the “shrunken log2 fold change” value stood at 0.197.

Consider RRIRMRPPRLPRPRPRPDCCPRP, for which the “shrunken log2 fold change” value is 2.61.

RRIRDRPPRLPRPRPRPTQPPRP: the “shrunken log2 fold change” value amounted to 0.0164.

Take RRIRFRPPRLPRPRPRPSEFPRP: the “shrunken log2 fold change” value is -0.301.

For the sequence RRIRERPPRLPRPRPRPNVVPRP, the “shrunken log2 fold change” value was found to be 0.0366.

On to RRIRGRPPRLPRPRPRPDSSPRP, for which the “shrunken log2 fold change” value was 0.217.

As to RRIRIRPPRLPRPRPRPYIQPRP, the “shrunken log2 fold change” value is -1.75.

RRIRYRPPRLPRPRPRPNTQPRP: the “shrunken log2 fold change” value is -0.17.

Consider RRIRGRPPRLPRPRPRPDPPPRP, for which the “shrunken log2 fold change” value was 1.14.

RRIRCRPPRLPRPRPRPRFIPRP: the “shrunken log2 fold change” value is -0.171.

On to RRIRERPPRLPRPRPRPNTFPRP, for which the “shrunken log2 fold change” value was -0.388.

For RRIRVRPPRLPRPRPRPHKMPRP, the “shrunken log2 fold change” value is -0.264.

As for RRIRQRPPRLPRPRPRPGYAPRP, the “shrunken log2 fold change” value came to 0.0993.

RRIRMRPPRLPRPRPRPYSIPRP: the “shrunken log2 fold change” value was -0.0122.

As for RRIRFRPPRLPRPRPRPLSQPRP, the “shrunken log2 fold change” value is -0.271.

RRIRMRPPRLPRPRPRPNPNPRP: the “shrunken log2 fold change” value worked out at 0.394.

In the case of RRIRRRPPRLPRPRPRPDWSPRP, the “shrunken log2 fold change” value came out at 0.182.

In the case of RRIRRRPPRLPRPRPRPNPSPRP, the “shrunken log2 fold change” value amounted to 0.215.

On to RRIRWRPPRLPRPRPRPQWPPRP, for which the “shrunken log2 fold change” value is 0.158.

For the sequence RRIRDRPPRLPRPRPRPEPPPRP, the “shrunken log2 fold change” value turned out to be 1.06.

For RRIRSRPPRLPRPRPRPYSNPRP, the “shrunken log2 fold change” value is -0.549.

On to RRIRARPPRLPRPRPRPIMEPRP, for which the “shrunken log2 fold change” value was determined as 0.0783.

RRIRWRPPRLPRPRPRPFYSPRP: the “shrunken log2 fold change” value was -0.681.

Turning to RRIRRRPPRLPRPRPRPHGNPRP, the “shrunken log2 fold change” value came to 0.166.

Turning to RRIRARPPRLPRPRPRPTGQPRP, the “shrunken log2 fold change” value came to 0.65.

Consider RRIRLRPPRLPRPRPRPNITPRP, for which the “shrunken log2 fold change” value was -0.327.

RRIRNRPPRLPRPRPRPKMSPRP: the “shrunken log2 fold change” value is -0.064.

With RRIRQRPPRLPRPRPRPLQCPRP, the “shrunken log2 fold change” value was -0.357.

For RRIRARPPRLPRPRPRPGCWPRP, the “shrunken log2 fold change” value was 0.965.

For RRIRQRPPRLPRPRPRPGCIPRP, the “shrunken log2 fold change” value was -0.306.

For the sequence RRIRDRPPRLPRPRPRPGHKPRP, the “shrunken log2 fold change” value was determined as 0.00794.

Consider RRIRHRPPRLPRPRPRPLGVPRP, for which the “shrunken log2 fold change” value is -0.109.

Take RRIRYRPPRLPRPRPRPMVSPRP: the “shrunken log2 fold change” value is -0.00277.

In the case of RRIRCRPPRLPRPRPRPYDLPRP, the “shrunken log2 fold change” value is -0.325.

As for RRIRTRPPRLPRPRPRPEMGPRP, the “shrunken log2 fold change” value is -0.0368.

For the sequence RRIRTRPPRLPRPRPRPQHYPRP, the “shrunken log2 fold change” value was -0.691.

As for RRIRIRPPRLPRPRPRPFTWPRP, the “shrunken log2 fold change” value was -0.924.

For the sequence RRIRQRPPRLPRPRPRPNCVPRP, the “shrunken log2 fold change” value was -0.0688.

Regarding RRIRSRPPRLPRPRPRPTMHPRP, the “shrunken log2 fold change” value was 0.0312.
